In patent publication EP4631974A1 (Nanjing Vazyme Biotech Co., Ltd., dated 2025):

B1: F6-210 (antibody, V domains shown)
VH: QERLAQSGTEVKKPGASVKVSCRALGYTFSDYSIHWVRQAPRQGLEWMGKINTSGGTTTYAQKFQARVTLTSDTSTSTASMELSSLKIEDTAVYYCVAYERATTLAGAGASDIWGQGTLVTVSS
VL: DIVMTQSPLSLPVTPGEPASISCRSSQSLLHSDGYNYLDWYLQKPGQSPHLLIYLGSNRASGVPDRFSGSGSGTDFTLKITRVEPEDVGVYYCMQSLQTPFTFGPGTKVDVKR
notes: Human IgG1 expressed in CHO cells; heavy = VH + IgG1 constant region, light = VL + CL
B2: F6-63 (antibody, V domains shown)
VH: QVQVVESGGGVVEPGGSLSLSCAASGFSFKMHAMHWVRQAPGKGLEWVAFIPYDGSSQYYADSVKGRFTIYRDNFKNTLYLQMNSLRVEDTSLYYCARGGEEGAWSWIGYNSYMDVWGRGTAVTVSS
VL: QSALTQPASVSGSPGQSITISCSGTSSDVGGYDYVCWYQKHPGESPRLIIYDVSRRPSGVSNRFSGSKSGNTASLTISGLQAEDEADYSCSSYTSSNTLIFGGGTKLTVLG
notes: as for B1

Assays:
[1] = target: T1, RSV A2 pre-F protein (respiratory syncytial virus (RSV) A2, UniProt P03420 26-513); test: ELISA, plate-coated RSV A2 pre-F, anti-human IgG Fc-HRP detection
T1 construct: House-made by Vazyme; also called RSV 2A pre-F protein

[2] = target: T1, RSV A2 pre-F protein; test: ELISA, plate-coated RSV A2 pre-F, anti-human IgG Fc-HRP detection (2-fold dilutions from 1 ug/mL)

Binder | EC50 [1] [µg/mL] | EC50 [2] [µg/mL]
B1 | 0.028 | –
B2 | – | 0.016
